Where a chain is given by its changes, count along the chain named. In names and notes the source's numbering stands. Values belong to the binder of their own block, whether it stands above or below them.
Biological target: plasma purified human complement protein C3 (human) (UniProt P01024)
Assay: cell-based or functional assay

Sequence of plasma purified human complement protein C3 (human) (P01024 23-667, chain 1 of 2): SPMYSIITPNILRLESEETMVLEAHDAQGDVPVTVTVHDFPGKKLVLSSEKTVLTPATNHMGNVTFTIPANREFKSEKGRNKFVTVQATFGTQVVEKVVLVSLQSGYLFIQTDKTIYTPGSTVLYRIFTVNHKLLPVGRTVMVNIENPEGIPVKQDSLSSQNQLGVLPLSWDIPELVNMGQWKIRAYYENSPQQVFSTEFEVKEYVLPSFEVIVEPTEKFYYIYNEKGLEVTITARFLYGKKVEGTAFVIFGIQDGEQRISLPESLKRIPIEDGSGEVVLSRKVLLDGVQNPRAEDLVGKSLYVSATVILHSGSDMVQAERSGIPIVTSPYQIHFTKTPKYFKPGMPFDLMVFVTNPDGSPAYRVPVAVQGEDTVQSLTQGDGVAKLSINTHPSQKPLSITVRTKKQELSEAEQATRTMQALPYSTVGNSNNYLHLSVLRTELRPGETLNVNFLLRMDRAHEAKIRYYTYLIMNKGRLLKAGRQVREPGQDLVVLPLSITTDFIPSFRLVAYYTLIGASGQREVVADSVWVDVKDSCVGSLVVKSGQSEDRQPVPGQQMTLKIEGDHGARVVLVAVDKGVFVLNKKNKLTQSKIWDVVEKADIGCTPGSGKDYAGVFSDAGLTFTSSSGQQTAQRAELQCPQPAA
Sequence of plasma purified human complement protein C3 (human) (P01024 672-1663, chain 2 of 2): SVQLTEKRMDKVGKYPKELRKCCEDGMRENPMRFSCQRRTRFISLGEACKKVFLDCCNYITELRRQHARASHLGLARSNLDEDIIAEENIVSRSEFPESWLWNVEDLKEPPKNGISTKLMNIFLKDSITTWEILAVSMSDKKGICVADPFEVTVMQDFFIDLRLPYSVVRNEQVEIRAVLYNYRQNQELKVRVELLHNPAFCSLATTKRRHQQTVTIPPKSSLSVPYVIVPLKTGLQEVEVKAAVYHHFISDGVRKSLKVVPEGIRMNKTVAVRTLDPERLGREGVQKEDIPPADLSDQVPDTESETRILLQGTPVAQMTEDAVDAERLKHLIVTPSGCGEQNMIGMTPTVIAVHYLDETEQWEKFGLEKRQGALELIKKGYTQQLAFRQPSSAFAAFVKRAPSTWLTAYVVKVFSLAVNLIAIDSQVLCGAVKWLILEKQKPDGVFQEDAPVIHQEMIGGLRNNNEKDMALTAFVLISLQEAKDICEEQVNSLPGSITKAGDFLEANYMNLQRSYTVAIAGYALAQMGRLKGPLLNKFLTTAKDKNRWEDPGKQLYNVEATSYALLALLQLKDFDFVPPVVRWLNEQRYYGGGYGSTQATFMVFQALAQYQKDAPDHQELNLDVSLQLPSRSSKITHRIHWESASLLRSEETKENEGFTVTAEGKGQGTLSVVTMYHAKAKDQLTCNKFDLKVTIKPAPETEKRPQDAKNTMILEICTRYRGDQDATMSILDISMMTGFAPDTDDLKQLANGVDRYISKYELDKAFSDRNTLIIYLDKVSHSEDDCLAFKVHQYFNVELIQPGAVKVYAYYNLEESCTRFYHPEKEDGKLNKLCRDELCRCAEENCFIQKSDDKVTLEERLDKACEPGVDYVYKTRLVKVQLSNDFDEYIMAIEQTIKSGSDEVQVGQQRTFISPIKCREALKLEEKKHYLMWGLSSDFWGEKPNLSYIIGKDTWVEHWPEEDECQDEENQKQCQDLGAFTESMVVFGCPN

B3: MTSP-1 Q38H/I41S/D60bF/F60eV/F97D/ins97aV/T98P/F99L/C122S/G151N/Q175L/Q192A (enzyme)
chain: VVGGTDADEGEWPWQVSLHALGHGHSCGASLISPNWLVSAAHCYIDFRGVRYSDPTQWTAFLGLHDQSQRSAPGVQERRLKRIISHPFFNDDVPLDYDIALLELEKPAEYSSMVRPISLPDASHVFPAGKAIWVTGWGHTQYGGTNALILQKGEIRVINQTTCENLLPQLITPRMMCVGFLSGGVDSCAGDSGGPLSSVEADGRIFQAGVVSWGDGCAQRNKPGVYTRLPLFRDWIKENTGV
EC50 of hC3 cleavage: 1.57 nM

B5: MTSP-1 Q38H/I41S/D60bT/F60eS/Y60gW/ins97aV/F97D/T98P/F99L/C122S/G151H/Q175L/Q192V (enzyme)
chain: B3 chain with F47T, V50S, Y52W, N146H, A189V
EC50 of hC3 cleavage: 7.43 nM

B6: MTSP-1 Q38E/I41V/D60bF/F60eK/Y60gF/F97T/ins97aE/T98G/F99L/C122S/Q175L/Q192G (enzyme)
chain: B3 chain with H23E, S26V, V50K, Y52F, D92T, V93E, P94G, N146G, A189G
EC50 of hC3 cleavage: 14.2 nM

B8: MTSP-1 Q38H/I41A/D60bE/F60eH/Y60gW/F97T/ins97aE/T98G/F99L/C122S/G151N/Q175L/Q192D (enzyme)
chain: B3 chain with S26A, F47E, V50H, Y52W, D92T, V93E, P94G, A189D
EC50 of hC3 cleavage: 8.28 nM

B9: MTSP-1 Q38H/I41A/D60bT/F60eK/Y60gW/F97T/ins97aE/T98G/F99L/C122S/Q175L/Q192A (enzyme)
chain: B3 chain with S26A, F47T, V50K, Y52W, D92T, V93E, P94G, N146G
EC50 of hC3 cleavage: 2.71 nM

B11: MTSP-1 Q38H2I/I41S/F97T/ins97aE/T98G/F99L/C122S/Q175L/Q192V (enzyme)
chain: B3 chain with H23K, F47D, V50F, D92T, V93E, P94G, N146G, A189V
EC50 of hC3 cleavage: 43 nM

B12: MTSP-1 Q38H/I41A/D60bT/F60eH/Y60gW/F97T/ins97aE/T98G/F99L/C122S/G151N/Q175L/Q192D (enzyme)
chain: B3 chain with S26A, F47T, V50H, Y52W, D92T, V93E, P94G, A189D
EC50 of hC3 cleavage: 6.95 nM

B14: MTSP-1 Q38H/I41S/D60bA/F60eV/ins97aE/F97T/T98G/F99L/C122S/Q175L/Q192E/Q209L (enzyme)
chain: B3 chain with F47A, D92T, V93E, P94G, N146G, A189E, Q207L
EC50 of hC3 cleavage: 16.9 nM

B17: MTSP-1 Q38D/I41S/D60bT/F60eR/ins97aV/F97D/T98P/F99L/C122S/G151K/Q175S/Q192V (enzyme)
chain: B3 chain with H23D, F47T, V50R, N146K, L170S, A189V
EC50 of hC3 cleavage: 48.1 nM

B18: MTSP-1 Q38H/I41S/D60bA/F60eV/ins97aE/F97T/T98G/F99L/C122S/Q175L/Q192V (enzyme)
chain: B3 chain with F47A, D92T, V93E, P94G, N146G, A189V
EC50 of hC3 cleavage: 10.9 nM

B19: MTSP-1 Q38H/I41A/D60bY/F60eT/ins97aE/F97T/T98G/F99L/C122S/Q175L/Q192D (enzyme)
chain: B3 chain with S26A, F47Y, V50T, D92T, V93E, P94G, N146G, A189D
EC50 of hC3 cleavage: 4.77 nM

B20: MTSP-1 I41T/D60bY/F97T/ins97aE/T98G/F99L/C122S/Q175L/Q192G (enzyme)
chain: B3 chain with H23Q, S26T, F47Y, V50F, D92T, V93E, P94G, N146G, A189G
EC50 of hC3 cleavage: 3.88 nM

B22: MTSP-1 Q38H/I41A/D60bV/F60eR/ins97aE/F97T/T98G/F99L/C122S/G151N/Q175L/Q192D (enzyme)
chain: B3 chain with S26A, F47V, V50R, D92T, V93E, P94G, A189D
EC50 of hC3 cleavage: 6.06 nM

B23: MTSP-1 Q38F/I41S/D60bF/F60eR/Y60gF/F97T/ins97aE/T98G/F99L/C122S/G151N/Q175L/Q192V (enzyme)
chain: B3 chain with H23F, V50R, Y52F, D92T, V93E, P94G, A189V
EC50 of hC3 cleavage: 1.96 nM

B24: MTSP-1 Q38H/I41S/D60bT/F60eS/Y60gW/ins97aV/F97D/T98P/F99L/C122S/G151H/Q175L/Q192D (enzyme)
chain: B3 chain with F47T, V50S, Y52W, N146H, A189D
EC50 of hC3 cleavage: 12.6 nM

B25: MTSP-1 Q38H/H40P/I41A/F60eQ/Y60gW/F97T/ins97aE/T98G/F99L/C122S/Q175L/Q192D (enzyme)
chain: B3 chain with H25P, S26A, F47D, V50Q, Y52W, D92T, V93E, P94G, N146G, A189D
EC50 of hC3 cleavage: 5.04 nM

B26: MTSP-1 Q38H/I41S/D60bT/F60eS/ins97aV/F97D/T98P/F99L/C122S/G151H/Q175A/Q192D (enzyme)
chain: B3 chain with F47T, V50S, N146H, L170A, A189D
EC50 of hC3 cleavage: 67.8 nM

Other lines, results leading:

EC50 of hC3 cleavage: 3.22 nM
B1: MTSP-1 Q38R/I41S/D60bY/F60eD/ins97aV/F97D/T98P/F99L/C122S/G151N/Q175M/Q192A (enzyme)
chain: B3 chain with H23R, F47Y, V50D, L170M

EC50 of hC3 cleavage: 68 nM
B2: MTSP-1 Q38W/I41A/ins97aV/F97D/T98P/F99L/C122S/G151T/Q175S/Q192D (enzyme)
chain: B3 chain with H23W, S26A, F47D, V50F, N146T, L170S, A189D

EC50 of hC3 cleavage: 5.08 nM
B4: MTSP-1 Q38H/I41S/D60bT/F60eT/F97D/ins97aV/T98P/F99L/C122S/G151N/Q175L/Q192V (enzyme)
chain: B3 chain with F47T, V50T, A189V

EC50 of hC3 cleavage: 5.72 nM
B7: MTSP-1 ins97aY/F97H/F99L/C122S/Q175M/Q192A/D217V (enzyme)
chain: B3 chain with H23Q, S26I, F47D, V50F, D92H, V93Y, P94T, N146G, L170M, D215V

EC50 of hC3 cleavage: 20.2 nM
B10: MTSP-1 Q38H/I41S/D60bT/F60eS/ins97aV/F97D/T98P/F99L/C122S/G151H/Q175L/Q192V (enzyme)
chain: B3 chain with F47T, V50S, N146H, A189V

EC50 of hC3 cleavage: 6.47 nM
B13: MTSP-1 Q38L/H40P/I41T/D60bV/F60eH/Y60gL/ins97aE/F97T/T98G/F99L/C122S/Q175L/Q192A (enzyme)
chain: B3 chain with H23L, H25P, S26T, F47V, V50H, Y52L, D92T, V93E, P94G, N146G

EC50 of hC3 cleavage: 5.73 nM
B15: MTSP-1 Q38L/I41A/D60bH/F60eT/ins97aV/F97D/T98P/F99L/C122S/G151Q/Q175A/Q192G (enzyme)
chain: B3 chain with H23L, S26A, F47H, V50T, N146Q, L170A, A189G

EC50 of hC3 cleavage: 43.1 nM
B16: MTSP-1 Q38W/I41S/D60bG/F60eI/F97D/ins97aV/T98P/F99L/C122S/G151N/Q175A/Q192D (enzyme)
chain: B3 chain with H23W, F47G, V50I, L170A, A189D

EC50 of hC3 cleavage: 18.3 nM
B21: MTSP-1 Q38R/I41V/D60bV/F60eV/Y60gF/ins97aE/F97T/T98G/F99L/C122S/Q175L/Q192G (enzyme)
chain: B3 chain with H23R, S26V, F47V, Y52F, D92T, V93E, P94G, N146G, A189G

EC50 of hC3 cleavage: 2.42 nM
B27: MTSP-1 ins97aY/F97G/T98V/C122S/Q175M/Q192S/D217V (enzyme)
chain: VVGGTDADEGEWPWQVSLHALGQGHICGASLISPNWLVSAAHCYIDDRGFRYSDPTQWTAFLGLHDQSQRSAPGVQERRLKRIISHPFFNDGYVFDYDIALLELEKPAEYSSMVRPISLPDASHVFPAGKAIWVTGWGHTQYGGTGALILQKGEIRVINQTTCENLLPQMITPRMMCVGFLSGGVDSCSGDSGGPLSSVEADGRIFQAGVVSWGVGCAQRNKPGVYTRLPLFRDWIKENTGV

— US20240018502A1
